{"source": "patent US9969795", "binders": {"B1": {"name": "AT10_004 (antibody, V domains shown)", "VH": "QVQLVQSGAEVRKPGASVKVSCKASGYTFTRHGISWVRQAPGQGLEWMGWISAYTGDTDYAQKFQGRVTMTTDTSTNTAYMELRSLRSDDAAVYYCARLRLQGEVVVPPSQSNWFDPWGQGTLVTVSS", "VL": "EIVLTQSPATLSLYPGERATLSCRASQSVSRYLAWYQQKPGQAPRLLIYDASNRATGIPARFSGSGSGTDFTLTISSLEPEDFAVYYCQQRSNWLKITFGQGTRLEIKG"}}, "target": "recombinant influenza HA3-protein (from H3N2, Wyoming, March 2003, Sino Biological Inc.) (Influenza virus H3N2 (Wyoming, March 2003))", "assay": "SPR imaging (IBIS MX96), antibody captured on anti-human-IgG chip, HA3 1 ug/ml; global 1:1 fit in Scrubber2", "data": [{"binder": "B1", "values": [{"measurement": "Kd", "value": 0.07, "unit": "nM"}, {"measurement": "koff", "value": "1e-06", "unit": "s⁻¹"}, {"measurement": "kon", "value": 14000, "unit": "M⁻¹ s⁻¹"}]}]}
